Measurements taken from publication PMC11853200.
Blank lines part the entries; values can stand above or below the substance they belong to.

Tests used:
[1] = molecular target: MotS_(68–242)(E75A) (Bacillus subtilis); experiment: SEC; Superdex 75 10/300 GL, 20 mM Tris-HCl pH 8.0 with 300 mM NaCl, 0.6 mL/min; size markers ovalbumin (43 kDa) and IgG (158 kDa)
[2] = molecular target: Bs-MotS_(68–242), periplasmic fragment of the stator B-subunit MotS from Bacillus subtilis (Bacillus subtilis); experiment: crystal structure; protein purified in 150 mM NaCl; crystals from 1.26 M ammonium sulfate, 0.1 M HEPES-NaOH pH 7.5, 293 K; solution containing 92 mM NaCl; 1.89 Å
[3] = molecular target: Bs-MotS_(68–242), periplasmic fragment of the stator B-subunit MotS from Bacillus subtilis (Bacillus subtilis); experiment: SEC; Superdex 75 10/300 GL, 20 mM Tris-HCl pH 8.0 with 300 mM NaCl, 0.6 mL/min; size markers ovalbumin (43 kDa) and IgG (158 kDa)
[4] = molecular target: Bs-MotS_(68–242), periplasmic fragment of the stator B-subunit MotS from Bacillus subtilis (Bacillus subtilis); experiment: crystal structure; protein purified in 300 mM KCl; crystals from 40% PEG-300, 0.1 M Na2HPO4/citric acid pH 4.2, 293 K; soaked in 40 mM NaCl/300 mM KCl; 1.90 Å
[5] = molecular target: Bs-MotS_(68–242), periplasmic fragment of the stator B-subunit MotS from Bacillus subtilis (Bacillus subtilis); experiment: crystal structure; protein purified in 300 mM NaCl; crystals from 20% PEG-8000, 0.1 M HEPES-NaOH pH 7.5, 293 K; soaked in 300 mM NaCl; 1.89 Å
[6] = molecular target: Bs-MotS_(68–242), periplasmic fragment of the stator B-subunit MotS from Bacillus subtilis (Bacillus subtilis); experiment: SEC; Superdex 75 10/300 GL, 20 mM Tris-HCl pH 8.0 with 300 mM KCl (no Na+), 0.6 mL/min; size markers ovalbumin (43 kDa) and IgG (158 kDa)
[7] = molecular target: MotS_(68–242)(D70A/E75A) (Bacillus subtilis); experiment: SEC; Superdex 75 10/300 GL, 20 mM Tris-HCl pH 8.0 with 300 mM NaCl, 0.6 mL/min; size markers ovalbumin (43 kDa) and IgG (158 kDa)
[8] = molecular target: MotS_(68–242)(D70A) (Bacillus subtilis); experiment: as above

- stoichiometry N [1]: 2
Substance: MotS_(68–242)(E75A) (domain or fragment)

- stoichiometry N [2]: 2
- stoichiometry N [3]: 2
- stoichiometry N [4]: 2
- stoichiometry N [5]: 2
- stoichiometry N [6]: 2
Substance: Bs-MotS_(68–242), periplasmic fragment of the stator B-subunit MotS from Bacillus subtilis (domain or fragment)

- stoichiometry N [7]: 2
Substance: MotS_(68–242)(D70A/E75A) (domain or fragment)

- stoichiometry N [8]: 2
Substance: MotS_(68–242)(D70A) (domain or fragment)
